Numbering of substitutions follows the chain as printed.

For this assay, the target named is T1, human CLDN6 (Claudin 6) (human, UniProt P56747 1-220).
T1 construct: whole, on cells; Target presented on NUGC-3 cells that express CLDN6; also called hCLDN6
T1 sequence (looked up): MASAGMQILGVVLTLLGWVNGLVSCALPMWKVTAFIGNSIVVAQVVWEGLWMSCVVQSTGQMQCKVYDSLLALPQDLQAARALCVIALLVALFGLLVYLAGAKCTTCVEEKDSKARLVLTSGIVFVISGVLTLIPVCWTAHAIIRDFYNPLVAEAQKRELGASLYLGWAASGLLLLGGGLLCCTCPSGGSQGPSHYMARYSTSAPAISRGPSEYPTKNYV
In words: flow cytometry on NUGC-3 cells expressing CLDN6, antibody 1 ng/mL to 25 µg/mL, PE anti-human IgG detection, gMFI. The procedure:
The cells of human gastric cancer cell line NUGC-3 (JCRB cell bank) expressing CLDN6 were suspended with PBS (Wako, #045-29795) containing 5% FBS so as to have a concentration of 1×10⁶ cells/mL. The suspension was seeded (added) in the wells of a 96-well V-bottom microplate at a rate of 100 μL/well. After centrifugation, the supernatant was removed. AbM: antibody comprising a heavy chain, aCLDN6-VH—CH₁—CH₂—CH₃ and a light chain, aCLDN6-VL-CL, disclosed in International Publication No. WO2022/058298. Ab0, Ab1 and Ab2 were suspended with 5% FBS-containing PBS such that the concentrations fall in the range of 1 ng/mL to 25 μg/mL (12 dilution series were prepared by serial dilution at a 2.5-fold dilution rate from 25 μg/mL to 1 ng/mL). The suspensions were added at a rate of 100 μL/well and allowed to stand still at 4° C. for one hour. […] A histogram of PE (phycoerythrin) fluorescence intensity of viable cell fractions was prepared and geometric mean fluorescence intensity (gMFI) was calculated. gMFI values were plotted to make a graph by GraphPad Prism (company: GraphPad Software). […]

B1: humanized anti-CLDN6 antibody Ab1 (antibody, human IgG1, kappa, V domains shown)
VH: QVQLVESGGGVVQPGGSLRLSCKASGYSFTGYTMNWVRQAPGKGLEWVGLINPYNGGTIYNQKFKGRFTLSVDKSKSTAYLQMNSLRAEDTAVYYCARDYGFVLDYWGRGTLVTVSS
VL: DIQLTQSPSSLSASVGDRVTITCSASSSVSYLHWFQQKPGKAPKLLVYSTSNLPSGVPSRFSGSGSGTDYTLTISSLQPEDFATYYCQQRSIYPPWTFGQGTKLEIKR
notes: Humanized from mouse anti-CLDN6 antibody GT512muMAB 64A or 61D (WO 2011/057788), expressed in ExpiCHO-S cells; Tested as the naked antibody
In the case of B1, the binding result is recorded as “binds”.

B2: humanized anti-CLDN6 antibody Ab2 (antibody, human IgG1, kappa, V domains shown)
VH: B1 VH with F102Y
VL: B1 VL
notes: Tested as the naked antibody
As for B2, the binding result is “binds”.
